The text below walks through data of PMC3866193.

Assay [1] deals with FAM (5,6-carboxyfluorescein)-labeled GluA2 amino terminal domain. In words: AUC; FDS-SV, dilution series of FAM-GluA2 ATD at labeling ratio 1.05 (Figure 4C/D); 20°C, pH 7.5, 0.1 mg/mL BSA; monomer-dimer model; dimer to monomers.
The target in assay [2] is Alexa Fluor 568-labeled GluA2 amino terminal domain. Put plainly: FRET or BRET; kinetic FRET in a spectrofluorometer, 20°C, excitation 495 nm, emission 603 nm; 50 nM donor-labeled and 50 nM AF568-labeled GluA2 ATD pre-equilibrated (30 min DL488, 60 min FAM), then 1 µM unlabeled GluA2 ATD added; decay fitted with exponential functions. In general terms: In BRET a luciferase serves as donor, and the signal depends on an acceptor being close.

The target of assay [3] is FAM (5,6-carboxyfluorescein)-labeled GluA2 amino terminal domain. Put plainly: AUC; FDS-SV, dilution series of FAM-GluA2 ATD at labeling ratio 2.26 (Figure 4E/F); 20°C, pH 7.5, 0.1 mg/mL BSA; monomer-dimer model; dimer to monomers.
Assay [4] shares this target. Put plainly: AUC; FDS-SV, dilution series of FAM-GluA2 ATD at labeling ratio 0.68 (Figure 4A/B), down to very low concentrations; 20°C, pH 7.5, 0.1 mg/mL BSA; monomer-dimer model; dimer to monomers.
Assay [5] has the same target. In words: AUC; FDS-SV, dilution series of FAM-GluA2 ATD at labeling ratio 1.32 extended to lower concentrations (Figure 5); all fits with s-values constrained to those of Dylight488-GluA2 ATD: single-component fit, and three-component fit with populations of different affinity; dimer to monomers.
The target is the same in assay [6]. Put plainly: AUC; FDS-SV, dilution series of FAM-GluA2 ATD at labeling ratio 1.32, single-component fit excluding the two lowest concentrations and freely adjusting the s-values (Figure 5A, thin blue line); dimer to monomers.
For assay [7] the target is unchanged. Put plainly: AUC; fluorescence-detected sedimentation velocity (FDS-SV), dilution series of labeled protein (Figure 3); 50,000 rpm, 20°C; 20 mM Na phosphate pH 7.5, 150 mM NaCl, 1 mM EDTA, 0.1 mg/mL BSA carrier; sw isotherm fitted with a monomer-dimer model; dimer to monomers.
Assay [8] concerns the target GluA2 ATD ATD (Rattus norvegicus) (UniProt P19491). Put plainly: sedimentation velocity AUC (far-UV absorbance). The conditions noted are these: cited from earlier work.
In assay [9] the target is Dylight488-labeled GluA2 amino terminal domain. In words: AUC; FDS-SV, dilution series of Dylight488-GluA2 ATD, two different runs, global best-fit single component, single class of sites model (Figure 5A); dimer to monomers.
The target is the same in assay [10]. Put plainly: AUC; fluorescence-detected sedimentation velocity (FDS-SV), dilution series of labeled protein (Figure 3); 50,000 rpm, 20°C; 20 mM Na phosphate pH 7.5, 150 mM NaCl, 1 mM EDTA, 0.1 mg/mL BSA carrier; sw isotherm fitted with a monomer-dimer model; dimer to monomers.
Assay [11] shares this target. Put plainly: AUC; FDS-SV, titration series: constant low concentration of labeled protein (1 nM for FAM-GluA2 ATD) with unlabeled GluA2 ATD at a range of concentrations (Figure S1); 20°C, pH 7.5, 0.1 mg/mL BSA; sw isotherm, monomer-dimer model; dimer to monomers.
Assay [12] has as its target EGFP-GluA2 ATD fusion protein. The assay is described as above.
Assay [13] has as its target FAM (5,6-carboxyfluorescein)-labeled GluA2 amino terminal domain. The description is as above.

Chain of EGFP-GluA2 ATD fusion protein (P23819 25-404): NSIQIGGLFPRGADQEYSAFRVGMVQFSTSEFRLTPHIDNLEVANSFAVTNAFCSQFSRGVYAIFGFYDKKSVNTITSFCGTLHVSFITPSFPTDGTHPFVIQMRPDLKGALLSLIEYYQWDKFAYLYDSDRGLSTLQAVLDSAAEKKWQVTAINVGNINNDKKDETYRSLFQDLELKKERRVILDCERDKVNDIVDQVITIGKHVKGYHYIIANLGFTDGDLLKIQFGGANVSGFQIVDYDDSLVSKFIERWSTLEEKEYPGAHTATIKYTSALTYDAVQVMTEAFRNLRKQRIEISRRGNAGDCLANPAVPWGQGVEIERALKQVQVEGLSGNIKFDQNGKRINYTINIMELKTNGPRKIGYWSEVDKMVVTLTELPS
Chain of GluA2 ATD ATD (P19491 22-400): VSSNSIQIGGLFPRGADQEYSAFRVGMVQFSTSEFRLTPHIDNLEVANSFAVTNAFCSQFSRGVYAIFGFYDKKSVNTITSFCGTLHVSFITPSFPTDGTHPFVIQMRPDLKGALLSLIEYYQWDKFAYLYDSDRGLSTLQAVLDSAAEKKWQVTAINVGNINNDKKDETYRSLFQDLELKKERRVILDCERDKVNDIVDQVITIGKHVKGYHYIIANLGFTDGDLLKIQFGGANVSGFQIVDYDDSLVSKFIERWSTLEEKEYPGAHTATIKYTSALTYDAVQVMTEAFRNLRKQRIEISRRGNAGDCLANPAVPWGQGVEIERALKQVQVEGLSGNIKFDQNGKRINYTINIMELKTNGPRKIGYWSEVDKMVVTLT

In the case of “FAM (5,6-carboxyfluorescein)-labeled GluA2 amino terminal domain (domain or fragment)”, the Kd (in general, the equilibrium constant for the complex coming apart) in [1] was found to be 2.6 nM. For the same substance, in [2], the life-time of the donor/acceptor heterodimer, fast component was found to be 95 s; the life-time of the donor/acceptor heterodimer, slow component was found to be 723 s; the time constant of the decay, fast component (double exponential fit, trace shown) was 98 s; the time constant of the decay, slow component (double exponential fit, trace shown) turned out to be 640 s. The Kd in assay [3] was 4.7 nM. The Kd in [4] turned out to be 3.1 nM. In assay [5], the KD of the high-affinity population (three-component fit) is 1.8 nM, the KD of the low-affinity population (three-component fit) is 24000 nM and the Kd stood at 6.3 nM. In assay [6], the Kd amounted to 4.6 nM. Also, in assay [7], the Kd was 2.3 nM and the stoichiometry N (as a rule, a count of units in the complex or per binding partner) was determined as 2.

With GluA2 ATD ATD (from UniProt P19491), the Kd in [8] was 9.4 nM.

In [2], “Dylight488-labeled GluA2 amino terminal domain (domain or fragment)” yielded a half life of the donor/acceptor heterodimer (single-exponential decay) of 2.72 min and a time constant of the decay (single exponential fit, trace shown) of 169 s. Further, the Kd in [9] was determined as 19.4 nM. Also, in assay [10], the Kd stood at 20.5 nM and the stoichiometry N was found to be 2.

Regarding “GluA2 amino terminal domain (GluA2 ATD), unlabeled (domain or fragment)”, the equilibrium dissociation constant (Kd) was determined as 16.5 nM in assay [11], 22 nM in assay [12] and 9 nM in assay [13].
